For data set [1], the system named is mice with type II diabetes. As to the kind of experiment: GP73 siRNA treatment of high-fat-diet-induced mice with type II diabetes. Format: in vivo, C57BL/6N mice. The following applies: for HbA1c: serum. As for the experimental part:
2. In the present invention, the detection method of glucose in mice is as follows: all blood samples were collected from the tail, and the blood glucose was tested by a full-automatic glucometer (ACCU-CHEK; Roche) through a glucose oxidase method; normal mice and diabetic mice were fasting for 6 h, and fasting blood glucose was tested; the random blood glucose level was tested at 9:00 am; and when the blood glucose level is greater than 35 mM (the upper limit of glucometer), it was recorded as 35 mM.
3. In the present invention, the detection method of the glycometabolism experiment is as follows: In the glucose, insulin and pyruvate tolerance tests, mice were fasting for 12 h and then injected with D-glucose (Sigma, Art. No.: G8270, 1.5 g/kg body weight), insulin (Sigma, Art. No.: 19278, 0.75 U/kg body weight) or sodium pyruvate (Sigma, Art. No.: P2256, 2 g/kg body weight) at […]; at 0 min, 15 min, 30 min, 45 min, 60 min, 120 min and 24 h after injection, blood was collected from the tail vein of mice, and blood glucose was tested to determine the intraperitoneal glucose tolerance (IPGTT), pyruvate tolerance (PTT) and insulin tolerance (ITT).
Experimental method: On this basis, C57BL/6N mice (male, 8-10 weeks old, 20-22 g) were selected, and after feeding high-fat diet for 20 weeks, the animals were fasting for 6 h, and the fasting blood glucose was tested. […] According to the fasting blood glucose, the mice were randomly divided into the Ctr siRNA group and the GP73 siRNA experimental group, 6 mice per group. The mice were first injected with 4 nM at the tail vein, and then intraperitoneally injected with 4 nM, once every 5 days. The mice were sacrificed 4 weeks after the first injection, and the indicators such as blood glucose and glycated hemoglobin were detected.

The next data set deals with endogenous GP73. In words: Knockdown of endogenous GP73 in H22 cells (western blotting). To be noted: H22 mouse liver cells; 24 h after transfection. Format: cell-based. As for the experimental part: Experimental method: A total of 9 RNAi oligos (Table 7, SEQ ID NOs. 1-9) targeting different sites of mouse GP73 were firstly synthesized, and H22 mouse liver cells were transfected and collected for the western blotting experiments 24 h after transfection.
(In western blotting, separated proteins are transferred to a membrane and probed.)

Data set [2] has as its target glucagon (UniProt P01275). In words: SPR, Reichert 4SPR. (Surface plasmon resonance follows binding to a sensor surface in real time, without labels.)
Data set [3] concerns the target glucagon (UniProt P01275). As to the kind of experiment: microscale thermophoresis (MST), His-tagged GP73 labelled with RED-tris-NTA, GCG titrated. For orientation: MST reads how a fluorescent partner responds to local heating, with and without ligand.
For data set [4], the target named is glucagon (UniProt P01275). In words: OpenSPR, GP73 coupled to amine sensor chip, glucagon in mobile phase.
The test system of the next data set is PKA. In words: PKA phosphorylation and kinase activity in HepG2 cells (western blotting). Format: cell-based. To be noted: versus PBS control.
Data set [5] deals with T1, GCG (Homo sapiens, UniProt P01275).
T1 construct: purchased MCE HY-P0082
In words: Affinity of recombinant soluble GP73 and GCG by OpenSPR. Format: binding.

The target in data set [6] is T1, GCG. As to the kind of experiment: Affinity of recombinant soluble GP73 and GCG by microscale thermophoresis (MST). Format: binding.
The target of data set [7] is T1, GCG. In words: Affinity of recombinant soluble GP73 and GCG by Reichert 4SPR. The class given is binding.

“Also recorded” adds a separate entry of the source.

The term Kd denotes a measure of binding affinity in units of concentration.

glucagon, sequence (P01275 53-81 limits assumed): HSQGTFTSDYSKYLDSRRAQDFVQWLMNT

In the case of “Ctr siRNA: RNAi oligos with disrupted sequences used as control, AUCACACCAACACAGGUCCTT (chemistry not given here)”, in data set [1] (4 weeks after treatment), the ALT is 77 ± 22, the AST came out at 243 ± 65, the CHO came out at 5.62 ± 0.97 and the TG worked out at 1.27 ± 0.37. The molecule further had a HbA1c in data set [1] (4 weeks after treatment) of 4.39±0.67%. The molecule further yielded a HbA1c in data set [1] (4 weeks after treatment, listed as Ctrl siRNA) of 4.39 ± 0.67%. Moreover, in data set [1] (Week 0), the Fasting blood glucose worked out at 12.0 ± 1.7 mM. This molecule showed a Fasting blood glucose in data set [1] (Week 4, injection once every 5 days) of 12.2 ± 3.0 mM.
For “No. 4: GP73 siRNA 995-CCAACAGGCAUCCAUCCAATT (unmodified) (2'-OMe throughout, phosphorothioates at both ends, 3'-cholesterol, counts not given here)”, the “Knockdown efficiency of endogenous GP73” value with endogenous GP73 is “good knockdown efficiency”.
For the molecule recombinant monkey soluble GP73, the Kd is 350 nM with glucagon [2] and 120 nM with glucagon [3].
For recombinant mouse soluble GP73, the Kd with glucagon [2] was 1550 nM; in the data set with glucagon [4] it was 3210 nM; in the data set with glucagon [3], 410 nM.
On to recombinant rat soluble GP73, for which the Kd in the data set with glucagon [2] was determined as 730 nM; in the data set with glucagon [4] it was 3190 nM; with glucagon [3], 580 nM.

B1: rhsGP73: recombinant human soluble GP73, NCBI Reference Sequence NP_057632.2 (protein)
chain: AAAERGAVELKKNEFQGELEKQREQLDKIQSSHNFQLESVNKLYQDEKAVLVNNITTGERLIRVLQDQLKTLQRNYGRLQQDVLQFQKNQTNLERKFSYDLSQCINQMKEVKEQCEERIEEVTKKGNEAVASRDLSENNDQRQQLQALSEPQPRLQAAGLPHTEVPQGKGNVLGNSKSQTPAPSSEVVLDSKRQVEKEETNEIQVVNEEPQRDRLPQEPGREQVVEDRPVGGRGFGGAGELGQTPQVQAALSVSQENPEMEGPERDQLVIPDGQEEEQEAAGEGRNQQKLRGEDDYNMDENEAESETDKQAALAGNDRNIDVFNVEDQKRDTINLLDQREKRNHTL
For B1, the “PKA phosphorylation level (PKA-p) and kinase activity (RRXρS/T)” value with PKA was “significantly up-regulated; also recorded: promotes the phosphorylation level (PKA-p) and kinase activity”. Further, the values for the Kd with GCG [5], with GCG [6] and with GCG [7] were 2800 nM, 2450 nM and 2830 nM, respectively.

The record behind these values is patent publication US20230021840A1, “USE OF GP73 INHIBITOR IN PREPARATION OF MEDICINE FOR TREATING DIABETES” (BEIJING SUNGEN BIOMEDICAL TECHNOLOGY CO. LTD., priority 2020, published 2023).
